Biological target: T1, complement C3b (UniProt P01024 23-667; P01024 751-1663)
T1 construct: range 1-645;range 729-1641; The residue numbers seem to count on C3 without its signal peptide
Experiment: Fig. S13A-C and results not shown

T1 sequence (P01024 23-667 limits assumed, chain 1 of 2): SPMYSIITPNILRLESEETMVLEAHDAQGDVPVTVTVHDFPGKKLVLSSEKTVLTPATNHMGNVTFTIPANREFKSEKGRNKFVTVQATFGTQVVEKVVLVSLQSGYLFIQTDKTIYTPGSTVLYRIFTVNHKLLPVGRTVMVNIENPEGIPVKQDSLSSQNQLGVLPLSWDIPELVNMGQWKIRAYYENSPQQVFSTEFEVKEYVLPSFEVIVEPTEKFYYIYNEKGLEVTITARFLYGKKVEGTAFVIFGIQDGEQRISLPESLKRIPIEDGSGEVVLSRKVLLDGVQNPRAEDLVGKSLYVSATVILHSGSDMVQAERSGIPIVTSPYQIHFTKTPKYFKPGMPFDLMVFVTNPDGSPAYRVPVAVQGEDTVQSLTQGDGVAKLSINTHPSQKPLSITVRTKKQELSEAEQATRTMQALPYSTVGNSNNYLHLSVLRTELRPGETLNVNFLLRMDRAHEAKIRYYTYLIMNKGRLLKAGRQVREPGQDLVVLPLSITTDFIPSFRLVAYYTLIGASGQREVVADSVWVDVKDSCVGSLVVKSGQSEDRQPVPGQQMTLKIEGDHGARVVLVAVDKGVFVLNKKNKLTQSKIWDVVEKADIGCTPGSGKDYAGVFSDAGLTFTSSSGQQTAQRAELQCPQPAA
T1 sequence (P01024 751-1663 limits assumed, chain 2 of 2): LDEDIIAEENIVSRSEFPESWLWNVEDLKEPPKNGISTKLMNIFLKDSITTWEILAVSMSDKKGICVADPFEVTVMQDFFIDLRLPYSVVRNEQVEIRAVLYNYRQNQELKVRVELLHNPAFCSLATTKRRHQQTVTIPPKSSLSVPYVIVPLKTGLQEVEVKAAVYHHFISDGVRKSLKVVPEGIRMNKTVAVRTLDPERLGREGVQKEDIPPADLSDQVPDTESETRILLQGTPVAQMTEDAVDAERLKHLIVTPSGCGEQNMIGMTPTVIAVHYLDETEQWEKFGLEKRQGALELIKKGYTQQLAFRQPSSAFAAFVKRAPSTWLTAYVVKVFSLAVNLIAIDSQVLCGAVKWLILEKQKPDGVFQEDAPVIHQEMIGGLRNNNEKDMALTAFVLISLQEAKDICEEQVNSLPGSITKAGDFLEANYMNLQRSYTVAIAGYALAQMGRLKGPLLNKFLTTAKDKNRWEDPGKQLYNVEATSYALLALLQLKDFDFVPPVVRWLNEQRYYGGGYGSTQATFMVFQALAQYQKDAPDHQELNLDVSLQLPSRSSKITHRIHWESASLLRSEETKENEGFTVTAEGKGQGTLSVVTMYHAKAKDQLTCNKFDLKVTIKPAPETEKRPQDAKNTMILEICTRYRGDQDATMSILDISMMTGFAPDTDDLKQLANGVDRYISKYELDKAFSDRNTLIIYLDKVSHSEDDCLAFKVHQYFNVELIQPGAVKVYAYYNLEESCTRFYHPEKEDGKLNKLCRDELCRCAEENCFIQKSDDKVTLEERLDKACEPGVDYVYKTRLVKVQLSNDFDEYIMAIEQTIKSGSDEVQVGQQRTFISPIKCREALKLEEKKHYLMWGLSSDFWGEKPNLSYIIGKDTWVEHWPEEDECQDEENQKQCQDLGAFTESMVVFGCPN

binding result: binds
B1: complement factor H (other, UniProt P08603 19-1231, looked up)
chain: EDCNELPPRRNTEILTGSWSDQTYPEGTQAIYKCRPGYRSLGNVIMVCRKGEWVALNPLRKCQKRPCGHPGDTPFGTFTLTGGNVFEYGVKAVYTCNEGYQLLGEINYRECDTDGWTNDIPICEVVKCLPVTAPENGKIVSSAMEPDREYHFGQAVRFVCNSGYKIEGDEEMHCSDDGFWSKEKPKCVEISCKSPDVINGSPISQKIIYKENERFQYKCNMGYEYSERGDAVCTESGWRPLPSCEEKSCDNPYIPNGDYSPLRIKHRTGDEITYQCRNGFYPATRGNTAKCTSTGWIPAPRCTLKPCDYPDIKHGGLYHENMRRPYFPVAVGKYYSYYCDEHFETPSGSYWDHIHCTQDGWSPAVPCLRKCYFPYLENGYNQNYGRKFVQGKSIDVACHPGYALPKAQTTVTCMENGWSPTPRCIRVKTCSKSSIDIENGFISESQYTYALKEKAKYQCKLGYVTADGETSGSITCGKDGWSAQPTCIKSCDIPVFMNARTKNDFTWFKLNDTLDYECHDGYESNTGSTTGSIVCGYNGWSDLPICYERECELPKIDVHLVPDRKKDQYKVGEVLKFSCKPGFTIVGPNSVQCYHFGLSPDLPICKEQVQSCGPPPELLNGNVKEKTKEEYGHSEVVEYYCNPRFLMKGPNKIQCVDGEWTTLPVCIVEESTCGDIPELEHGWAQLSSPPYYYGDSVEFNCSESFTMIGHRSITCIHGVWTQLPQCVAIDKLKKCKSSNLIILEEHLKNKKEFDHNSNIRYRCRGKEGWIHTVCINGRWDPEVNCSMAQIQLCPPPPQIPNSHNMTTTLNYRDGEKVSVLCQENYLIQEGEEITCKDGRWQSIPLCVEKIPCSQPPQIEHGTINSSRSSQESYAHGTKLSYTCEGGFRISEENETTCYMGKWSSPPQCEGLPCKSPPEISHGVVAHMSDSYQYGEEVTYKCFEGFGIDGPAIAKCLGEKWSHPPSCIKTDCLSLPSFENAIPMGEKKDVYKAGEQVTYTCATYYKMDGASNVTCINSRWTGRPTCRDTSCVNPPTVQNAYIVSRQMSKYPSGERVRYQCRSPYEMFGDEEVMCLNGNWTEPPQCKDSTGKCGPPPPIDNGDITSFPLSVYAPASSVEYQCQNLYQLEGNKRITCRNGQWSEPPKCLHPCVISREIMENYNIALRWTAKQKLYSRTGESVEFVCKRGYRLSSRSHTLRTTCWDGKLEYPTCAKR
notes: also called fH

Source: patent US20080045697A1 (Genentech, published 2008)
